Test results reported in patent US11760795B2, “Monoclonal antibodies to growth and differentiation factor 15 (GDF-15), and uses thereof for treating cancer cachexia and cancer” (JULIUS-MAXIMILIANS-UNIVERSITÄT WÜRZBURG, priority 2014, dated 2023).

How the values were obtained:
[1] = test system: prostate cancer cell line LnCap; assay: Cancer cell proliferation, Alamar Blue metabolic assay; type: cell-based; settings: after 72 hrs, compared with control group without antibody
Excerpt: (§1) The strongest antiproliferative effect was observed using the prostate cancer cell line LnCap, which produces lots of GDF-15.

[2] = test system: melanoma cell line UACC-257; assay: UACC-257 melanoma xenograft tumor growth in nude mice; type: in vivo, Balb/c^nu/nu nude mice; settings: 25 mg/kg i.p. twice a week; 48 days; p<0.05
Protocol: FIG. 4: An anti-tumor effect of murine B1-23 in vivo. Balb/c^nu/nu nude mice were used in a xenograft setting with the melanoma cell line UACC-257. […] Significance was defined as p<0.05 as assessed by Wilcoxon's log-rank test.
To assess an anti-tumor effect of B1-23 in viva, Balb/c^nu/nu nude mice were used in a xenograft setting with the melanoma cell line UACC-257. The mice were treated either with the antibody B1-23 or with PBS. Each treatment cohort contained 10 Balb/c^nu/nu nude mice.
Prior to injection, the UACC-257 melanoma cells were grown in complete medium, excluding any contamination. […] Cells were then washed with PBS and counted. 1×10^7 viable cells were suspended in PBS.
The first injection/treatment was administered in 6 week old Balb/c^nu/nu nude mice. The inoculation area of the mice was cleaned with ethanol. The UACC 257 cells were mixed and drawn into a syringe without a needle, in order to avoid negative pressure on the tumor cells. […]
The intraperitoneal (i.p.) injection of either B1-23 (25 mg/kg body weight) or the same volume of PBS started immediately after the tumor cell inoculation (defined as day 1) and was administered twice a week. […] The tumor diameters were measured with a caliper and the tumor volume in mm^3 was calculated by the formula: Volume=(width)^2×length/2

[3] = Gel electrophoresis and coomassie staining of antibodies used in study No. 140123; type: physicochemical
Protocol: FIG. 6: Coomassie stain of antibodies used in the study No. 140123.
The quality of the humanized anti-GDF-15 antibody B1-23-H1L5 used in the study was tested by using gel electrophoresis and coomassie staining of the antibodies (see FIG. 6).

[4] = Study No. 140123: body weight of UACC-257 inoculated mice (cancer-induced weight loss); type: in vivo, Balb/c^nu/nu mice; settings: 38 days
Protocol: FIG. 5: Treatment of cancer cachexia with anti-GDF-15 antibodies. […] The changes of the body weight are depicted in percent as compared to the starting body weight on day 0, for a period of 38 days.
(§2) Treatment of cancer-induced weight loss with anti-GDF-15 antibodies. In the underlying animal study No. 140123, 10 Balb/c^nu/nu mice per treatment group were subcutaneously inoculated with 10×10^6 UACC-257 cells per animal in a 1:1 volume ratio with matrigel (100 μl cells+100 μl matrigel). The animals were treated on the same day with the respective antibodies, as indicated below:
The study was carried out in a double-blinded manner for the treatment with the antibodies and for the treatment with PBS.

[5] = target: T1, recombinant mature human GDF-15 protein derived from expression in E. coli (Homo sapiens, UniProt Q99988); assay: Surface plasmon resonance binding to recombinant GDF-15 derived from E. coli expression; settings: SPR
T1 construct: recombinant mature human GDF-15 protein was immobilized on flow cells 1 and 2; made in house; host or cells: E. coli
T1 sequence (Q99988 195-308): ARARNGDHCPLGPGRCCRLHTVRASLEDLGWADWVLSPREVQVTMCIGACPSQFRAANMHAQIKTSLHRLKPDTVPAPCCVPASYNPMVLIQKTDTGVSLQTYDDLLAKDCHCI
Excerpt: For preparing the biosensors recombinant mature human GDF-15 protein was immobilized on flow cells 1 and 2. On one flow cell recombinant GDF-15 derived from Baculvirus-transfected insect cells (HighFive insect cells) and on the other recombinant protein derived from expression in E. coli was used. The GLC sensor chip was activated using Sulfo-NHS (N-Hydroxysulfosuccinimide) and EDC (1-Ethyl-3-[3-dimethylaminopropyl]carbodiimide hydrochloride) (Bio-Rad® ProteOn™ Amine Coupling Kit) according to the manufacturer's recommendation, the sensor surface was subsequently loaded with the proteins up to a density of about 600RU (1Ru=1 pg mm^−2). The non-reacted coupling groups were then quenched by perfusion with 1M ethanolamine pH 8.5 and the biosensor was equilibrated by perfusing the chip with running buffer ([…], 150 mM NaCl, 3.4 mM EDTA, 0.005% Tween® 20, pH 7.4, referred to as HBS150). […] The resulting sensogram was analyzed using the software ProteOn Manager version 3.0. […] For the association rate constant a value of 5.4±0.06×10^5 M^−1s^−1 (kon) and for the dissociation rate constant a value of 4.3±0.03×10^−4 s^−1 (koff) could be determined (values are for the interaction of anti-human GDF-15 mAb-B1-23 with GDF-15 derived from insect cell expression).

[6] = Study No. 140123: feed consumption of UACC-257 inoculated mice; type: in vivo, Balb/c^nu/nu mice
Protocol: as §2
In addition to evaluating the mean body weight of the mice, the feed consumption of the mice was evaluated by pairwise comparisons of the study groups (Table 1).

[7] = Aggregation study: shaking 48 hours at room temperature, visual analysis for precipitates; type: physicochemical; settings: PBS, no stabilizing proteins for H1L5
Protocol: In order to test the aggregation properties of anti-GDF-15 antibodies, antibody samples were shaken for 48 hours at room temperature in microcentrifuge tubes, and subsequently, the tubes were visually analyzed for aggregated antibody precipitates.

[8] = test system: GDF-15 mediated JNK1/2-phosphorylation in immune cells; assay: JNK1/2 phosphorylation in immune cells (Western Blot); type: cell-based; settings: 2 μg antibody, 10 ng/ml GDF-15, 5 minute preincubation
Protocol: FIG. 3: JNK1/2 Phosphorylation in Immune Cells. In order to quantify the Western Blot, the ratio of phosphorylated JNK1/2 to the total amount of JNK was calculated and normalized to the untreated control.
c) Treatment of immune cells with recombinant. GDF-15 led to the phosphorylation of JNK, a kinase, which is activated either by cytokines or by stress. Antagonization of 10 ng/ml GDF-15 with 2 μg mAb-B1-23 (5 minute preincubation at 37°) blocked the GDF-15 mediated JNK1/2-phosphorylation (FIG. 3).

cancer cells = assay: Cytotoxic effects of the antibody (different assays); type: cell-based
Excerpt: as §1

B1: mAb-B1-23: murine IgG2a (kappa) monoclonal anti-human GDF-15 antibody produced by hybridoma cell line B1-23, DSM ACC3142 (antibody, V domains shown)
VH: QVKLQQSGPGILQSSQTLSLTCSFSGFSLSTSGMGVSWIRQPSGKGLEWLAHIYWDDDKRYNPTLKSRLTISKDPSRNQVFLKITSVDTADTATYYCARSSYGAMDYWGQGTSVTVSS
VL: DIVLTQSPKFMSTSVGDRVSVTCKASQNVGTNVAWFLQKPGQSPKALIYSASYRYSGVPDRFTGSGSGTDFTLTISNVQSEDLAEYFCQQYNNFPYTFGGGTKLEIKRTVA
- decrease of proliferation [1]: 30%
- tumor size compared to the PBS control group [2]: significantly decreased
- band appearance / aggregation in coomassie gel [3]: less sharp and at a higher molecular weight
- body weight change compared to day 0 [4]: increase in body weight
- deviation of rate constants, GDF-15 from insect cells vs E. coli [5]: about 45%
- Feed consumption per mouse and day ([6]; average over day 17-34 intervals, with standard deviation): 3.6 ± 0.2 g
- feed consumption compared with groups which did not receive the anti-GDF-15 antibodies ([6]; mouse, in vivo): significantly higher
- tendency to aggregate [7]: can form aggregates
- GDF-15 mediated JNK1/2-phosphorylation [8]: blocked
- cytotoxic effects of the antibody (cancer cells): excluded
